Reference: patent US20240417469A1 (CONCEPT TO MEDICINE BIOTECH, published 2024)

Tests used:
[1] = target: T1, human CD3 on cells (human PBMC; Jurkat TCR/CD3 NFAT reporter cells) (human, UniProt P07766 23-207; P04234 22-171; P09693 23-182); test: cell-based or functional assay
[2] = target: T1, human CD3 on cells (human PBMC; Jurkat …); test: cell-based or functional assay; remark: listed apart in the source
human CD3 protein = target: T2, human CD3 protein (human, UniProt P07766 23-126; P04234 22-105); test: ELISA, plate-coated CD3;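 further: binding to plate-immobilized human CD3 protein, bound antibody detected with peroxidase-labelled anti-human IgG and TMB, read as absorbance at 450 nm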
T2 construct: ELISA coating protein; also called Human CD3D & CD3E Heterodimer Protein

[3] = target: T3, recombinant CD3D&E protein (human CD3-his tag) (human, UniProt P04234 22-105; P07766 23-126, limits assumed); test: SPR Biacore, Ab captured on Protein A;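 further: humanized antibodies on a Protein A chip, human CD3-his analyte flowed over in serial dilutions for 3 min, dissociation tracked 120–360 s on a Biacore T200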
T3 construct: Analyte in Biacore; also called CD3D&E-His; CD3d&ε-His
Wherever Emax is given: unit not given here.

T3 sequence (P04234 22-105 limits assumed, chain 1 of 2): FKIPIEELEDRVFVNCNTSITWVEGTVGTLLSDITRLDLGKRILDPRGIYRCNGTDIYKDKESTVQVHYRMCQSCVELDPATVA
T3 sequence (P07766 23-126 limits assumed, chain 2 of 2): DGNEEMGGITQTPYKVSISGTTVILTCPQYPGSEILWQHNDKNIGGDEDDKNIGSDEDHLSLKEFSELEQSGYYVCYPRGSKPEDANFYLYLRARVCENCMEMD
T1 sequence (P07766 23-207, chain 1 of 3): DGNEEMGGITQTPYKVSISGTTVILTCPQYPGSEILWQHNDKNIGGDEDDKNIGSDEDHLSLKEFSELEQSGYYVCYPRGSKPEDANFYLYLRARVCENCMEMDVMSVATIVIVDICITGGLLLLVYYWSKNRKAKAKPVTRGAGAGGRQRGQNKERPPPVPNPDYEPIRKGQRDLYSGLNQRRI
T1 sequence (P04234 22-171, chain 2 of 3): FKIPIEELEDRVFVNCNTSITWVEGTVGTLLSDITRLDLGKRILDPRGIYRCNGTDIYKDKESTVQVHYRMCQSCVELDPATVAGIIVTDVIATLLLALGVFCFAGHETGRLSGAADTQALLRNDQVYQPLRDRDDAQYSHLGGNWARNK
T1 sequence (P09693 23-182, chain 3 of 3): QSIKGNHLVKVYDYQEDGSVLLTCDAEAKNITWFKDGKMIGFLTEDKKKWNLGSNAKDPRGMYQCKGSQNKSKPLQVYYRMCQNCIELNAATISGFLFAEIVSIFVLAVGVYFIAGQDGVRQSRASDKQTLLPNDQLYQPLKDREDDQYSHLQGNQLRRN
T2 sequence (P07766 23-126 limits assumed, chain 1 of 2): as the sequence (P07766 23-126 limits assumed, chain 2 of 2) above
T2 sequence (P04234 22-105 limits assumed, chain 2 of 2): as the sequence (P04234 22-105 limits assumed, chain 1 of 2) above

% of SP34 [1] [%]	Emax [1]	CD3-NFAT Activity by CD3 mAb [2] [% SP34]	EC50 (human CD3 protein) [ng/mL]	Kd [3] [nM]	koff [3] [s⁻¹]	kon [3] [M⁻¹ s⁻¹]	Binder
14.8	752	≤ 50	16.4	15.8	0.00648	409000	Hu155A9B1-4 (antibody, V domains shown, humanized mAb) VH: EVQLQESGPGLVKPSETLSLTCTVSGGSISSYNVHWVRQPPGKGLEWMGRVRYNGDTSYNSALKSRLTISRDTSKNQFSLKLSSVTAADTAVYYCTRGPYGGSSEPLFDYWGQGTMVTVSS VL: DIQMTQSPSSLSASVGDRVTITCKASQNINKYLNWYQQKPGKAPRLLIYTTNNLQTGVPSRFSGSGSGTDFTLTISSLQPEDFATYYCLQHNSGYTFGQGTKLEIK
12.8	648	≤ 50	32.2	18	0.00667	370000	Hu155A9B1-3 (antibody, V domains shown, humanized mAb) VH: EVQLQESGPGLVKPSETLSLTCTVSGGSISSYNVHWVRQPPGKGLEWMGRVRYNGDTSYNSALKSRLTISRDTSKNQFSLKLSSVTAADTAVYYCARGPYGGSSEPLFDYWGQGTMVTVSS VL: DIQMTQSPSSLSASVGDRVTITCKASQNINKYLNWYQQKPGKAPRLLIYTTNNLQTGVPSRFSGSGSGTDFTLTISSLQPEDFATYYCLQHNSGYTFGQGTKLEIK
21.6	1240	≤ 50	7.28	95.6	0.0165	173000	Hu155A9B1-16 (antibody, V domains shown, humanized mAb; also called 155z16) VH: EVQLQESGPGLVKPSETLSLTCTVSGGSISSYNVHWVRQPPGKGLEWMGRVRYNGDTSYNSALKSRLTISRDTSKNQFSLKLSSVTAADTAVYYCTRGPYGGSSEPLFDYWGQGTMVTVSS VL: DIQMTQSPSSLSASVGDRVTITCKASQNINKYLNWFQQKPGKAPRLLIYTTNNLQTGIPSRFSGSGSGTDFTLTISSLQPEDFATYFCLQHNSGYTFGQGTKLEIK
74	4250	> 50	1.95	51.4	0.00291	56600	Hu155A9B1-18 (antibody, V domains shown, humanized mAb) VH: EVQLQESGPGLVKPSETLSLTCTVSGFSLTSYNVHWVRQPPGKGLEWMGRVRYNGDTSYNSALKSRLTISRDTSKNQASLKLSSVTAADTAVYYCTRGPYGGSSEPLFDYWGQGTMVTVSS VL: DIQMTQSPSSLSASVGDRVTITCKASQNINKYLNWFQQKPGKAPRLLIYTTNNLQTGIPSRFSGSGSGTDFTLTISSLQPEDFATYFCLQHNSGYTFGQGTKLEIK
79.9	4050	> 50	3.27	61.4	0.00637	104000	Hu155A9B1-5 (antibody, V domains shown, humanized mAb; also called 155z5) VH: EVQLQESGPGLVKPSETLSLTCTVSGFSISSYNVHWVRQPPGKGLEWMGRVRYNGDTSYNSALKSRLTISRDTSKNQASLKLSSVTAADTAVYYCTRGPYGGSSEPLFDYWGQGTMVTVSS VL: DIQMTQSPSSLSASVGDRVTITCKASQNINKYLNWYQQKPGKAPRLLIYTTNNLQTGVPSRFSGSGSGTDFTLTISSLQPEDFATYYCLQHNSGYTFGQGTKLEIK
18.4	1060	≤ 50	124	12.6	0.00354	280000	Hu155A9B1-13 (antibody, V domains shown, humanized mAb) VH: EVQLQESGPGLVKPSETLSLTCTVSGGSISSYNVHWIRQPPGKGLEWIGRVRYNGDTSYNSALKSRVTISVDTSKNQFSLKLSSVTAADTAVYYCARGPYGGSSEPLFDYWGQGTMVTVSS VL: DIQMTQSPSSLSASVGDRVTITCKASQNINKYLNWFQQKPGKAPRLLIYTTNNLQTGIPSRFSGSGSGTDFTLTISSLQPEDFATYFCLQHNSGYTFGQGTKLEIK
19.1	1100	≤ 50	5.66	79.2	0.0187	236000	Hu155A9B1-14 (antibody, V domains shown, humanized mAb) VH: EVQLQESGPGLVKPSETLSLTCTVSGGSISSYNVHWVRQPPGKGLEWIGRVRYNGDTSYNSALKSRVTISRDTSKNQFSLKLSSVTAADTAVYYCARGPYGGSSEPLFDYWGQGTMVTVSS VL: DIQMTQSPSSLSASVGDRVTITCKASQNINKYLNWFQQKPGKAPRLLIYTTNNLQTGIPSRFSGSGSGTDFTLTISSLQPEDFATYFCLQHNSGYTFGQGTKLEIK
26.2	1330	≤ 50	5.84	70.2	0.0159	226000	Hu155A9B1-8 (antibody, V domains shown, humanized mAb; also called 155z8) VH: EVQLQESGPGLVKPSETLSLTCTVSGGSISSYNVHWVRQPPGKGLEWIGRVRYNGDTSYNSALKSRVTISRDTSKNQFSLKLSSVTAADTAVYYCARGPYGGSSEPLFDYWGQGTMVTVSS VL: DIQMTQSPSSLSASVGDRVTITCKASQNINKYLNWFQQKPGKAPRLLIYTTNNLQTGIPSRFSGSGSGTDFTLTISSLQPEDFATYYCLQHNSGYTFGQGTKLEIK
78.4	4500	> 50	3.2	44.1	0.00306	69300	Hu155A9B1-11 (antibody, V domains shown, humanized mAb) VH: EVQLQESGPGLVKPSETLSLTCTVSGFSISSYNVHWVRQPPGKGLEWMGRVRYNGDTSYNSALKSRLTISRDTSKNQASLKLSSVTAADTAVYYCTRGPYGGSSEPLFDYWGQGTMVTVSS VL: DIQMTQSPSSLSASVGDRVTITCKASQNINKYLNWFQQKPGKAPRLLIYTTNNLQTGIPSRFSGSGSGTDFTLTISSLQPEDFATYYCLQHNSGYTFGQGTKLEIK
22.6	1140	≤ 50	136	13.5	0.00547	406000	Hu155A9B1-7 (antibody, V domains shown, humanized mAb) VH: EVQLQESGPGLVKPSETLSLTCTVSGGSISSYNVHWIRQPPGKGLEWIGRVRYNGDTSYNSALKSRVTISVDTSKNQFSLKLSSVTAADTAVYYCARGPYGGSSEPLFDYWGQGTMVTVSS VL: DIQMTQSPSSLSASVGDRVTITCKASQNINKYLNWFQQKPGKAPRLLIYTTNNLQTGIPSRFSGSGSGTDFTLTISSLQPEDFATYYCLQHNSGYTFGQGTKLEIK
76	4370	> 50	3.07	43.6	0.00307	70400	Hu155A9B1-17 (antibody, V domains shown, humanized mAb) VH: EVQLQESGPGLVKPSETLSLTCTVSGFSISSYNVHWVRQPPGKGLEWMGRVRYNGDTSYNSALKSRLTISRDTSKNQASLKLSSVTAADTAVYYCTRGPYGGSSEPLFDYWGQGTMVTVSS VL: DIQMTQSPSSLSASVGDRVTITCKASQNINKYLNWFQQKPGKAPRLLIYTTNNLQTGIPSRFSGSGSGTDFTLTISSLQPEDFATYFCLQHNSGYTFGQGTKLEIK
20.1	1150	≤ 50	6.51	53.5	0.0152	285000	Hu155A9B1-15 (antibody, V domains shown, humanized mAb) VH: EVQLQESGPGLVKPSETLSLTCTVSGGSISSYNVHWVRQPPGKGLEWMGRVRYNGDTSYNSALKSRLTISRDTSKNQFSLKLSSVTAADTAVYYCARGPYGGSSEPLFDYWGQGTMVTVSS VL: DIQMTQSPSSLSASVGDRVTITCKASQNINKYLNWFQQKPGKAPRLLIYTTNNLQTGIPSRFSGSGSGTDFTLTISSLQPEDFATYFCLQHNSGYTFGQGTKLEIK
24	1380	≤ 50	6.04	80.5	0.015	187000	Hu155A9B1-10 (antibody, V domains shown, humanized mAb) VH: EVQLQESGPGLVKPSETLSLTCTVSGGSISSYNVHWVRQPPGKGLEWMGRVRYNGDTSYNSALKSRLTISRDTSKNQFSLKLSSVTAADTAVYYCTRGPYGGSSEPLFDYWGQGTMVTVSS VL: DIQMTQSPSSLSASVGDRVTITCKASQNINKYLNWFQQKPGKAPRLLIYTTNNLQTGIPSRFSGSGSGTDFTLTISSLQPEDFATYYCLQHNSGYTFGQGTKLEIK
34.9	1770	≤ 50	6.28	55	0.0155	282000	Hu155A9B1-9 (antibody, V domains shown, humanized mAb) VH: EVQLQESGPGLVKPSETLSLTCTVSGGSISSYNVHWVRQPPGKGLEWMGRVRYNGDTSYNSALKSRLTISRDTSKNQFSLKLSSVTAADTAVYYCARGPYGGSSEPLFDYWGQGTMVTVSS VL: DIQMTQSPSSLSASVGDRVTITCKASQNINKYLNWFQQKPGKAPRLLIYTTNNLQTGIPSRFSGSGSGTDFTLTISSLQPEDFATYYCLQHNSGYTFGQGTKLEIK
72.4	4160	> 50	3.35	51.2	0.00286	55900	Hu155A9B1-12 (antibody, V domains shown, humanized mAb) VH: EVQLQESGPGLVKPSETLSLTCTVSGFSLTSYNVHWVRQPPGKGLEWMGRVRYNGDTSYNSALKSRLTISRDTSKNQASLKLSSVTAADTAVYYCTRGPYGGSSEPLFDYWGQGTMVTVSS VL: DIQMTQSPSSLSASVGDRVTITCKASQNINKYLNWFQQKPGKAPRLLIYTTNNLQTGIPSRFSGSGSGTDFTLTISSLQPEDFATYYCLQHNSGYTFGQGTKLEIK
